According to patent publication US20160122418A1 (ARIDIS PHARMACEUTICALS, published 2016):

Key:
[1] = target: F protein of clinical RSV isolate #1 (RSV clinical isolate #1); assay: cell-based or functional assay
[2] = target: T1, F protein of palivizumab-resistant clinical RSV isolate #20 (RSV clinical isolate #20, UniProt P11209 26-574); assay: cell-based or functional assay
T1 chain: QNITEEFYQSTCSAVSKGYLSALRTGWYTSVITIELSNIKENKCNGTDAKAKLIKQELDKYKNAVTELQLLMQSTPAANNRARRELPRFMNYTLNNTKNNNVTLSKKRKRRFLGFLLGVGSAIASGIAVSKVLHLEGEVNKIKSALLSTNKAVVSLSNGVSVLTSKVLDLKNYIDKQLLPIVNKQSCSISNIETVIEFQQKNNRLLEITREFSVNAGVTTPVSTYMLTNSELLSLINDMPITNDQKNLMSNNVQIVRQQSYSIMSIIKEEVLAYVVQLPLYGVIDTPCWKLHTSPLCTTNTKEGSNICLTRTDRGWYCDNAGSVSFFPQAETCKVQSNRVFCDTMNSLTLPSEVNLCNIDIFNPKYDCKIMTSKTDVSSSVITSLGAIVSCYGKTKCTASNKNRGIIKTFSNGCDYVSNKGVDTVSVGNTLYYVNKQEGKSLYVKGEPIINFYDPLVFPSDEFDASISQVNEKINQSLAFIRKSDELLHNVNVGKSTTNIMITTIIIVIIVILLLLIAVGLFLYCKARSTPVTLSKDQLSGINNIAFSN

[3] = target: T2, Human RSV (A2) Fusion glycoprotein RSV F protein, Sino Biological Inc. (Human RSV (A2), UniProt P03420 26-529); assay: SPR, Biacore 2000, F protein amine-coupled to CM5 chip, antibody as analyte, Langmuir 1:1 fit
T2 construct: Bought protein; also called purified RSV F protein; recombinant human RSV F protein

[4] = target: T3, F protein on intact RSV particles (Example 10, strain or isolate not stated) (RSV, strain ); assay: competition ELISA; RSV particles pre-incubated with inhibiting mAb at 20 µg/mL; competitor (coating mAb): AR201
T3 construct: also called RSV viral particles

[5] = target: T3, F protein on intact RSV particles …; assay: competition ELISA; RSV particles pre-incubated with inhibiting mAb at 20 µg/mL; competitor (coating mAb): palivizumab
Protocol: After incubation for one hour at 4° C., plates were washed and polyclonal rabbit-anti-RSV-HRP labeled antisera was added to each well. Bound viral particles were detected by colorimetric measurement. Maximum binding of RSV to the immobilized antibody in the presence of the competitor antibody was determined relative to binding in the presence of the monoclonal human IgG control antibody.

[6] = target: T2, Human RSV (A2) Fusion glycoprotein RSV …; assay: ELISA, serial dilutions of purified AR201 on plates coated 'as described above' (RSV-EIA antigen by the legend of FIG. 6, or purified F protein); anti-human IgG-HRP

B1: AR201 (antibody, V domains shown)
VH: LVQLRESGPGLVKPSQTLSLTCSVSGASINLYDYFWGWIRQAPGRGPEWIGYISGSTYYNPSLKRRATISVDTSKSQFFLELTSVTAADTAVYYCARDVGWGPQYYYGLDVWGQGTTVTVSS
VL: DLVLTQSPGTLSLSPGERATLSCRASHSVQSTSLAWYQQKRGQAPRLLIYGGSSRVTGIPDRFSGSGSGTDFTLTISRLEPEDFAVYYCQQSDRSPPITFGQGTRLEMK
notes: Recombinant human IgG1 made in HEK293T cells; kappa light chain cloned whole; The claims' numbering is used here; also called KBRV201; human monoclonal antibody AR201
IC50 of neutralization, infectivity assay on Hep2 cells [1]: 1700 nM
IC50 of neutralization, infectivity assay on Hep2 cells [2]: 1710 nM
Kd [3]: 0.058 nM
koff [3]: 2.7e-05 s⁻¹
kon [3]: 470000 M⁻¹ s⁻¹
% binding of RSV to the coating mAb relative to control IgG [4]: 22.5%
% binding of RSV to the coating mAb relative to control IgG [5]: 40.8%
EC50 [6]: 0.103 nM
